The term Kd denotes the equilibrium constant for the complex coming apart.

Substitutions are numbered along the chain they refer to.

Sequences and labels used below:
T1: cynomolgus CD47-ECD-Avi-His (cynomolgus monkey)
T1 construct: also called recombinant cynomolgus monkey CD47-avi-his protein
T1 chain: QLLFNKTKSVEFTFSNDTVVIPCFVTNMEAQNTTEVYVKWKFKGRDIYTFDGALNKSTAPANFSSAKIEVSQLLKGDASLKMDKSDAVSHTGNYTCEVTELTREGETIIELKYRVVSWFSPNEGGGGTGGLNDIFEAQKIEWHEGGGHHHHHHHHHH

B1: anti-CD47-UCP02-C1 FAB (Fab, V domains shown)
VH: QVQLVQSGAEVKKPGSSVKVSCKASGGFFSAHTISWVRQAPGQGLEWMGRITAVRGVPTYAQKFQGRVTITADESTSTAYMELSSLRSEDTAVYYCARASYGGPRYYWDGLDIWGQGTLVTVSS
VL: not shown
notes: human IgG1 Fab
B2: anti-CD47-UCP01-A3 FAB (Fab, V domains shown)
VH: EVQLVESGGGLIQPGGSLRLSCAASGFTFTNSWMSWVRQAPGKGLEWVSVIYKYGFTEYADSVKGRFTISRDNSKNTLYLQMNSLRAEDTAVYYCARGSSIAAYAYAAPYRGGWMDVWGQGTLVTVSS
VL: not shown
notes: human IgG1 Fab
B3: anti-CD47-UCP01-A2 FAB (Fab, V domains shown)
VH: EVQLLESGGGLVQPGGSLRLSCAASGFTFSRFAMGWVRQAPGKGLEWVSIISPNGHVTAYADSVKGRFTISRDNSKNTLYLQMNSLRAEDTAVYYCARDGLSVSSQGVAFDYWGQGTLVTVSS
VL: not shown
notes: human IgG1 Fab
B4: anti-CD47-UCP01-A1 FAB (Fab, V domains shown)
VH: QVQLVQSGAEVKKPGSSVKVSCKASGGFFRLYAFSWVRQAPGQGLEWMGGIIPTDGFVGYAQKFQGRVTITADESTSTAYMELSSLRSEDTAVYYCARSRYYRPYGEYYVVGYGFAYWGQGTLVTVSS
VL: not shown
notes: human IgG1 Fab
B5: anti-CD47-UCP02-H3 FAB (Fab, V domains shown)
VH: B4 VH
VL: not shown
notes: human IgG1 Fab
B6: anti-CD47-UCP01-G2 FAB (Fab, V domains shown)
VH: EVQLVESGGGLIQPGGSLRLSCAASGFTVSNSYMTWVRQAPGKGLEWVSVIYKYGKTSYADSVKGRFTISRDNSKNTLYLQMNSLRAEDTAVYYCARGLTVSPYWGGAFDYWGQGTLVTVSS
VL: not shown
notes: human IgG1 Fab
B7: anti-CD47-UCP01-B3 FAB (Fab, V domains shown)
VH: EVQLVESGGGLIQPGGSLRLSCAASGFTFSNNYMSWVRQAPGKGLEWVSVIYKKGFTNYADSVKGRFTISRDNSKNTLYLQMNSLRAEDTAVYYCARGLSVDKYDGGPFDYWGQGTLVTVSS
VL: not shown
notes: human IgG1 Fab
B8: anti-CD47-UCP02-B3 FAB (Fab, V domains shown)
VH: QVQLVQSGAEVKKPGSSVKVSCKASGGRFRLYGINWVRQAPGQGLEWMGGISPIDGYAAYAQKFQGRVTITADESTSTAYMELSSLRSEDTAVYYCARSRRPYSASASYPGYGMDVWGQGTLVTVSS
VL: not shown
notes: human IgG1 Fab
B9: anti-CD47-UCP01-G1 FAB (Fab, V domains shown)
VH: EVQLLESGGGLVQPGGSLRLSCAASGFTFSNYAMAWVRQAPGKGLEWVSVISVEGGLTVYADSVKGRFTISRDNSKNTLYLQMNSLRAEDTAVYYCARGSRDSRGKYGAFDVWGQGTLVTVSS
VL: not shown
notes: human IgG1 Fab
B10: anti-CD38-B6-MP01-D9 FAB (Fab, V domains shown)
VH: QVQLVQSGAEVKKPGSSVKVSCKASGGFFSHYIINWVRQAPGQGLEWMGRVIPVIDDAYYAQKFQGRVTITADESTSTAYMELSSLRSEDTAVYYCARSRGYYGSFYFDIWGQGTLVTVSS
VL: not shown
notes: human IgG1 Fab; also called anti-CD38-B6-D9
B11: anti-CD38-B6-MP01-B4 FAB (Fab, V domains shown)
VH: B10 VH with G27Y, F28E, S30N, H31T
VL: not shown
notes: human IgG1 Fab
B12: anti-CD38-B6-MP01-H3a FAB (Fab, V domains shown)
VH: B10 VH with F28P, S30N, H31A, Y32N, I34V, V37I
VL: not shown
notes: human IgG1 Fab
B13: anti-CD38-B6-MP02-C1 FAB (Fab, V domains shown)
VH: B10 VH with F28H, F29Q, S30L, H31G, Y32K
VL: not shown
notes: human IgG1 Fab
B14: anti-CD38-B6-MP01-H3b FAB (Fab, V domains shown)
VH: B10 VH with F28P, S30Q, H31S, Y32N, I34V, V37I
VL: not shown
notes: human IgG1 Fab
B15: anti-CD38-B6-MP02-G11 FAB (Fab, V domains shown)
VH: B10 VH with F28H, F29T, S30L, H31P, Y32P
VL: not shown
notes: human IgG1 Fab
B16: anti-CD38-B6-MP02-C2 FAB (Fab, V domains shown)
VH: B10 VH with F28H, F29G, S30Q, H31Q, Y32R
VL: not shown
notes: human IgG1 Fab
B17: anti-CD38-B6-MP02-B10 FAB (Fab, V domains shown)
VH: B10 VH with F28H, F29N, S30L, H31G, Y32K, A40P
VL: not shown
notes: human IgG1 Fab
B18: anti-CD38-B6-MP01-A4 FAB (Fab, V domains shown)
VH: B10 VH with F28P, H31D, I33V
VL: not shown
notes: human IgG1 Fab
B19: anti-CD38-E2-UCP02-F3 FAB (Fab, V domains shown)
VH: QVQLVQSGAEVKKPGSSVKVSCKASGGSFSNYAIGWVRQAPGQGLEWMGRIIPVLDAAHYAQKFQGRVTITADESTSTAYMELSSLRSEDTAVYYCARGLGYYLYSSYYFDIWGQGTLVTVSS
VL: not shown
notes: human IgG1 Fab; also called anti-CD38-E2-F3
B20: anti-CD38-E2-UCP02-E7 FAB (Fab, V domains shown)
VH: B19 VH with V54A, D56A, A58T
VL: not shown
notes: human IgG1 Fab
B21: anti-CD38-E2-UCP02-A5 FAB (Fab, V domains shown)
VH: B19 VH with V54D, D56G
VL: not shown
notes: human IgG1 Fab
B22: anti-CD38-E2-UCP02-D6 FAB (Fab, V domains shown)
VH: B19 VH with V54R, A58E
VL: not shown
notes: human IgG1 Fab
B23: anti-CD38-E2-UCP02-G8 FAB (Fab, V domains shown)
VH: B19 VH with V54A, D56G, A57G, A58V
VL: not shown
notes: human IgG1 Fab
B24: anti-CD38-E2-UCP01-A10 FAB (Fab, V domains shown)
VH: B19 VH with G27L, S28P, F29D, S30A, N31T, L55F, D56G, A57S
VL: not shown
notes: human IgG1 Fab
B25: anti-CD38-E2-UCP02-F8 FAB (Fab, V domains shown)
VH: B19 VH with V54S, A58G
VL: not shown
notes: human IgG1 Fab; also called anti-CD38-E2-F8
B26: anti-CD38-420-E2-RecB FAB (Fab, V domains shown)
VH: B19 VH with G27L, S28P, F29D, S30A, N31T, V54A, D56A, A58T
VL: not shown
notes: human IgG1 Fab
B27: anti-CD38-420-E2-RecC FAB (Fab, V domains shown)
VH: B19 VH with G27L, S28P, F29D, S30A, N31T
VL: not shown
notes: human IgG1 Fab
B28: anti-CD38-420-E2-RecD FAB (Fab, V domains shown)
VH: B19 VH with G27L, S28P, F29D, S30A, N31T, V54A, D56G, A57G, A58V
VL: not shown
notes: human IgG1 Fab
B29: anti-CD38-420-E2-RecA FAB (Fab, V domains shown)
VH: B19 VH with G27L, S28P, F29D, S30A, N31T, V54R, A58E
VL: not shown
notes: human IgG1 Fab; also called anti-CD38-E2-RecA

For the first assay, the target named is T1, cynomolgus CD47-ECD-Avi-His. Kind of assay: SPR, CD47 amine-coupled, Fab analyte, 1:1 fit.
Description: (§1) Surface plasmon resonance (SPR) was used to measure the binding affinities of the Fab fragments for human and cynomolgus monkey CD47. Affinities were measured on a Biacore T200 instrument (Biacore, GE Healthcare) at 25° C. and analyzed with the Biacore T200 Evaluation Software (v3.1). […] Recombinant human CD47 protein and recombinant cynomolgus monkey CD47 protein were covalently immobilized to around 50 RU on flow-path 2 and flow-path 4 respectively of the Sensor Chip surface using a commercially available amine coupling kit (Biacore, GE Healthcare, catalog NO: BR100050). […] Dissociation was monitored for 5 min. After each cycle, the Series S CM5 Sensor Chip surface coated with recombinant CD47 proteins was regenerated with 30 μl of 10 mM Glycine pH 1.5 (Biacore, GE Healthcare, catalog NO: BR100354). Experimental data were processed using the 1:1 Langmuir kinetic fitting model. Measurements included zero-concentration samples for referencing. Chi², U- and residual values were used to evaluate the quality of a fit between the experimental data and individual binding models.
On to B1, for which binding was put at a Kd of 113 nM.

As for B2, the Kd is 1260 nM.

B3: the Kd came to 1070 nM.

The molecule B4 yielded a Kd of 15.9 nM.

Consider B5, for which binding was characterised by a dissociation constant (Kd) of 17.8 nM.

Molecule B6 displayed a Kd of 190 nM.

With B7, binding was put at a Kd of 340 nM.

For B8, the Kd worked out at 1120 nM.

As to B9, the Kd came out at 214 nM.

The target of a further assay is T2, human CD47-ECD-Avi-His (human).
T2 construct: also called recombinant human CD47-avi-his protein; recombinant human CD47 protein
Kind of assay: SPR, CD47 amine-coupled, Fab analyte, 1:1 fit. (In general: Surface plasmon resonance follows binding to a sensor surface in real time, without labels.)
Description: as §1
The molecule B1 showed a Kd of 193 nM.

B2 registered a Kd of 1170 nM.

On to B3, for which binding was characterised by a dissociation constant (Kd) of 822 nM.

Turning to B4, the Kd came out at 292 nM.

In turn, B5 yielded a Kd of 455 nM.

B6 had a dissociation constant (Kd) of 183 nM.

Turning to B7, binding was put at a Kd of 316 nM.

As for B8, the Kd was 1010 nM.

Take B9: binding was characterised by a dissociation constant (Kd) of 136 nM.

Another assay addresses T3, recombinant biotinylated human CD38 Avitag, His Tag (Acrobiosystems, CD8-H82E7) (human, UniProt P28907 43-300, biotinylated (Avitag)).
T3 construct: Bought protein; also called biotinylated human CD38-avi-his protein; biotinylated recombinant human CD38 protein
Nature of the assay: SPR, biotinylated CD38 captured, Fab as analyte.
As for B10, the Kd worked out at 0.55 nM.

With B11, the Kd is 11.9 nM.

B12: the Kd is 28.3 nM.

Turning to B13, the Kd amounted to 12 nM.

In the case of B14, the Kd was found to be 28.9 nM.

Regarding B15, the Kd was 425 nM.

Consider B16, for which the Kd came to 101 nM.

On to B17, for which the Kd came to 20.1 nM.

As to B18, the Kd was determined as 84.9 nM.

With B19, the Kd stood at 3.5 nM.

In the case of B20, the Kd was 2.2 nM.

Turning to B21, the Kd is 23.6 nM.

For the molecule B22, the Kd was 4.9 nM.

Turning to B23, the dissociation constant Kd amounted to 5.2 nM.

Consider B24, for which the dissociation constant Kd is 9.4 nM.

In the case of B25, the Kd was determined as 17.6 nM.

The target in the next assay is T4, recombinant cynomolgus monkey CD38-ECD-C-his (cynomolgus monkey, UniProt Q5VAN0 45-301).
T4 construct: Extracellular region fused to 6-His; also called cyno CD38-C-His; recombinant cynomolgus monkey CD38 protein
Kind of assay: SPR, His-captured cyno CD38, Fab as analyte.
On to B10, for which the Kd turned out to be 3.33 nM.

For B11, the Kd is 45.4 nM.

For B12, the Kd was determined as 120 nM.

For B13, the Kd came to 67.2 nM.

On to B14, for which the Kd was found to be 130 nM.

In the case of B15, the Kd amounted to 262 nM.

As to B17, the Kd was found to be 81.2 nM.

For B18, the Kd amounted to 229 nM.

Turning to B19, the Kd is 2.4 nM.

On to B20, for which the Kd came out at 1.8 nM.

For B21, the dissociation constant Kd is 4.4 nM.

For the molecule B22, the Kd was 1.1 nM.

As to B23, the Kd worked out at 4.2 nM.

As for B24, the Kd came to 8.6 nM.

On to B25, for which the Kd was determined as 24.5 nM.

The target in a further assay is T5, recombinant human CD38-ECD-C-his (human, UniProt P28907 43-300).
T5 construct: Extracellular region fused to 6-His, made in house; also called human CD38-C-His; recombinant human CD38 protein
Kind of assay: SPR, Fab captured as ligand, CD38 analyte.
Description: (§2) Affinities of the Fab to human and cynomolgus CD38 using the Fab as ligand were measured on a Biacore T200 instrument (Biacore, GE Healthcare) at 25° C. and analyzed with the BiacoreT200 Evaluation Software (v3.1). […] The affinities to human and cynomolgus monkey CD38 were assessed by immobilizing Fab fragments and using human or cynomolgus monkey CD38 protein as analyte. Around 50-200 RU of Fab was captured on flow-path 2 of a Series S CM5 Sensor Chip coupled with anti-human Fab antibodies. Human or cynomolgus monkey CD38 was injected in multi cycle kinetic at different concentrations ranging from 0.2 to 100 nM, in HBS-EP+ buffer (Biacore, GE Healthcare, catalog NO: BR100669) at a flow rate of 30 μl/min for 5 min on flow-path 1 and 2 (flow-path 1 being used as reference). Dissociation was monitored for 10 min. […] Experimental data were processed using the 1:1 Langmuir kinetic fitting model. Measurements included zero-concentration samples for referencing. Chi², U- and residual values were used to evaluate the quality of a fit between the experimental data and individual binding models.
With B10, the Kd came out at 2.3 nM.

In the case of B11, the equilibrium dissociation constant (Kd) is 51.6 nM.

As for B12, the Kd is 89.4 nM.

As to B13, the dissociation constant (Kd) turned out to be 97.7 nM.

In the case of B14, the Kd is 171 nM.

Regarding B15, the Kd is 128 nM.

Take B16: the Kd was 404 nM.

For the molecule B17, the Kd was 108 nM.

With B18, the Kd came to 227 nM.

For the molecule B26, the dissociation constant Kd worked out at 1.6 nM.

As to B19, the Kd amounted to 6.13 nM.

In the case of B20, the Kd stood at 4.66 nM.

As for B27, the Kd is 1.3 nM.

B21: the Kd is 35 nM.

Regarding B28, the Kd is 6.7 nM.

Take B22: the dissociation constant Kd was 5.35 nM.

For B23, the Kd came out at 7.7 nM.

As for B29, the equilibrium dissociation constant (Kd) was found to be 0.9 nM.

Take B24: the dissociation constant (Kd) stood at 16.9 nM.

Consider B25, for which the Kd turned out to be 16.2 nM.

For the next assay, the target named is T4, recombinant cynomolgus monkey …. Kind of assay: SPR, Fab captured as ligand, cyno CD38 analyte.
Description: as §2
For the molecule B10, the dissociation constant Kd was 5.2 nM.

Take B11: the Kd amounted to 167 nM.

Take B12: the Kd came out at 389 nM.

Consider B13, for which the equilibrium dissociation constant (Kd) is 333 nM.

In the case of B14, the Kd is 330 nM.

Consider B15, for which the Kd came to 534 nM.

Consider B16, for which the Kd worked out at 342 nM.

For the molecule B17, the Kd was 528 nM.

As to B18, the Kd came to 828 nM.

With B26, the Kd worked out at 4.4 nM.

Regarding B27, the Kd worked out at 3.9 nM.

As to B28, the Kd is 22.1 nM.

In the case of B29, the Kd was determined as 3.7 nM.
